Values quoted from earlier work in paper PMC5520056, “Cryo-EM structures of the ATP-bound Vps4^E233Q hexamer and its complex with Vta1 at near-atomic resolution” (Nature Communications, 2017).

Molecular target: Vta1 VSL (Saccharomyces cerevisiae) (UniProt Q06263)
Sequence (Q06263 280-330): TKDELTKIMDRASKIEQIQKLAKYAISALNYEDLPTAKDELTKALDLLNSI

Sequence of Vps4 β-domain (P52917 351-397): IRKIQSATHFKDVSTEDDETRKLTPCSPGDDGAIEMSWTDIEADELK

Kd: 85 µM
Substance: Vps4 β-domain (from UniProt P52917)
